In US20250161474A1 (SICHUAN KELUN BIOTECH BIOPHARMACEUTICAL, published 2025):
Residue numbers refer to the chain shown, from its start.

B1: BsAb 10B (bispecific antibody, human IgG1, kappa)
light: not shown
heavy: not shown
chain: DIQMTQSPSSLSASVGDRVTITCKSSQSLLYTSSQKNYLAWYQQKPGKAPKLLIYWASTRESGVPSRFSGSGSGTDFTLTISSLQPEDFATYYCQQYYAYPWTFGQGTKVEIKGGGGSGGGGSGGGGSEVQLVESGGGLVQPGGSLRLSCAASGYTFTSYWLHWVRQAPGKGLEWVGMIDPSNSDTRFNPNFKDRFTISADTSKNTAYLQMNSLRAEDTAVYYCATYRSYVTPLDYWGQGTLVTVSSGGGGDKTHTCPPCPAPELLGGPSVFLFPPKPKDTLMISRTPEVTCVVVDVSHEDPEVKFNWYVDGVEVHNAKTKPREEQYNSTYRVVSVLTVLHQDWLNGKEYKCKVSNKALPAPIEKTISKAKGQPREPQVCTLPPSREEMTKNQVSLSCAVKGFYPSDIAVEWESNGQPENNYKTTPPVLDSDGSFFLVSKLTVDKSRWQQGNVFSCSVMHEALHNHYTQKSLSLSPGK
notes: Fab-scFv-Fc (KIH) format; anti-EGFR Fab, anti-c-MET scFv; also called bispecific antibody 10B
B2: ADC 38B-A-14 (bispecific antibody, human IgG1, kappa, L234A L235A)
light: not shown
heavy: not shown
chain: B1 chain with L265A, L266A, P360A, E387D, M389L
modifications: linker-payload A-14 on reduced Cys sulfhydryls (sites not given); DAR of the whole ADC approximately 6
B3: ADC 07B-A-05 (bispecific antibody, human IgG1, kappa)
light: DIQMTQSPSSLSASVGDRVTITCKSSQSLLYTSSQKNYLAWYQQKPGKAPKLLIYWASTRESGVPSRFSGSGSGTDFTLTISSLQPEDFATYYCQQYYAYPWTFGQGTKVEIKRTVAAPSVFIFPPSDEQLKSGTASVVCLLNNFYPREAKVQWKVDNALQSGNSQESVTEQDSKDSTYSLSSTLTLSKADYEKHKVYACEVTHQGLSSPVTKSFNRGEC
heavy: not shown
chain: AIQLTQSPSSLSASVGDRVTITCRASQDISSALVWYQQKPGKAPKLLIYDASSLESGVPSRFSGSESGTDFTLTISSLQPEDFATYYCQQFNSYPLTFGGGTKVEIKGGGGSGGGGSGGGGSQVQLVESGGGVVQPGRSLRLSCAASGFTFSTYGMHWVRQAPGKGLEWVAVIWDDGSYKYYGDSVKGRFTISRDNSKNTLYLQMNSLRAEDTAVYYCARDGITMVRGVMKDYFDYWGQGTLVTVSSGGGGDKTHTCPPCPAPELLGGPSVFLFPPKPKDTLMISRTPEVTCVVVDVSHEDPEVKFNWYVDGVEVHNAKTKPREEQYNSTYRVVSVLTVLHQDWLNGKEYKCKVSNKALPAPIEKTISKAKGQPREPQVCTLPPSREEMTKNQVSLSCAVKGFYPSDIAVEWESNGQPENNYKTTPPVLDSDGSFFLVSKLTVDKSRWQQGNVFSCSVMHEALHNHYTQKSLSLSPGK
modifications: linker-payload A-05 on reduced Cys sulfhydryls (sites not given); DAR of the whole ADC approximately 6
B4: BsAb 07B (bispecific antibody, human IgG1, kappa)
light: B3 light
heavy: not shown
chain: B3 chain
notes: Fab-scFv-Fc (KIH) format; anti-c-MET Fab, anti-EGFR scFv; expressed in CHO-K1; also called bispecific antibody 07B
B5: ADC 56B-A-14 (bispecific antibody)
chain 1: not shown
chain 2: B1 chain with L265A, L266A, P360A, E387D, M389L
modifications: linker-payload A-14 on reduced Cys sulfhydryls (sites not given); DAR of the whole ADC approximately 4
B6: ADC 55B-A-14 (bispecific antibody, human IgG1, kappa, L234A L235A)
light: B3 light
heavy: not shown
chain 1: AIQLTQSPSSLSASVGDRVTITCRASQDISSALVWYQQKPGKAPKLLIYDASSLESGVPSRFSGSESGTDFTLTISSLQPEDFATYYCQQFNSYPLTFGGGTKVEIKSSASTKGPSVFPLAPSSKSTSGGTAALGCLVKDYFPEPVTVSWNSGALTSGVHTFPAVLQSSGLYSLSSVVTVPSSSLGTQTYICNVNHKPSNTKVDKKVEPKSC
chain 2: QVQLVESGGGVVQPGRSLRLSCAASGFTFSTYGMHWVRQAPGKGLEWVAVIWDDGSYKYYGDSVKGRFTISRDNSKNTLYLQMNSLRAEDTAVYYCARDGITMVRGVMKDYFDYWGQGTLVTVSSASVAAPSVFIFPPSDEQLKSGTASVVCLLNNFYPREAKVQWKVDNALQSGNSQESVTEQDSKDSTYSLSSTLTLSKADYEKHKVYACEVTHQGLSSPVTKSFNRGECDKTHTCPPCPAPEAAGGPSVFLFPPKPKDTLMISRTPEVTCVVVDVSHEDPEVKFNWYVDGVEVHNAKTKPREEQYNSTYRVVSVLTVLHQDWLNGKEYKCKVSNKALAAPIEKTISKAKGQPREPQVCTLPPSRDELTKNQVSLSCAVKGFYPSDIAVEWESNGQPENNYKTTPPVLDSDGSFFLVSKLTVDKSRWQQGNVFSCSVMHEALHNHYTQKSLSLSPGK
modifications: linker-payload A-14 on reduced Cys sulfhydryls (sites not given); DAR of the whole ADC approximately 8
B7: BsAb 38B (bispecific antibody, human IgG1, kappa, L234A L235A)
light: not shown
heavy: not shown
chain: B1 chain with L265A, L266A, P360A, E387D, M389L
notes: Fab-scFv-Fc (KIH) format; anti-EGFR Fab, anti-c-MET scFv; also called bispecific antibody 38B

target: T1, human c-MET (human, UniProt P08581 25-1390); experiment: flow cytometry on EBC-1 cells (highly express c-MET)
T1 construct: whole, on cells; also called tyrosine protein kinase Met; hepatocyte growth factor receptor
T1 sequence (P08581 25-1390): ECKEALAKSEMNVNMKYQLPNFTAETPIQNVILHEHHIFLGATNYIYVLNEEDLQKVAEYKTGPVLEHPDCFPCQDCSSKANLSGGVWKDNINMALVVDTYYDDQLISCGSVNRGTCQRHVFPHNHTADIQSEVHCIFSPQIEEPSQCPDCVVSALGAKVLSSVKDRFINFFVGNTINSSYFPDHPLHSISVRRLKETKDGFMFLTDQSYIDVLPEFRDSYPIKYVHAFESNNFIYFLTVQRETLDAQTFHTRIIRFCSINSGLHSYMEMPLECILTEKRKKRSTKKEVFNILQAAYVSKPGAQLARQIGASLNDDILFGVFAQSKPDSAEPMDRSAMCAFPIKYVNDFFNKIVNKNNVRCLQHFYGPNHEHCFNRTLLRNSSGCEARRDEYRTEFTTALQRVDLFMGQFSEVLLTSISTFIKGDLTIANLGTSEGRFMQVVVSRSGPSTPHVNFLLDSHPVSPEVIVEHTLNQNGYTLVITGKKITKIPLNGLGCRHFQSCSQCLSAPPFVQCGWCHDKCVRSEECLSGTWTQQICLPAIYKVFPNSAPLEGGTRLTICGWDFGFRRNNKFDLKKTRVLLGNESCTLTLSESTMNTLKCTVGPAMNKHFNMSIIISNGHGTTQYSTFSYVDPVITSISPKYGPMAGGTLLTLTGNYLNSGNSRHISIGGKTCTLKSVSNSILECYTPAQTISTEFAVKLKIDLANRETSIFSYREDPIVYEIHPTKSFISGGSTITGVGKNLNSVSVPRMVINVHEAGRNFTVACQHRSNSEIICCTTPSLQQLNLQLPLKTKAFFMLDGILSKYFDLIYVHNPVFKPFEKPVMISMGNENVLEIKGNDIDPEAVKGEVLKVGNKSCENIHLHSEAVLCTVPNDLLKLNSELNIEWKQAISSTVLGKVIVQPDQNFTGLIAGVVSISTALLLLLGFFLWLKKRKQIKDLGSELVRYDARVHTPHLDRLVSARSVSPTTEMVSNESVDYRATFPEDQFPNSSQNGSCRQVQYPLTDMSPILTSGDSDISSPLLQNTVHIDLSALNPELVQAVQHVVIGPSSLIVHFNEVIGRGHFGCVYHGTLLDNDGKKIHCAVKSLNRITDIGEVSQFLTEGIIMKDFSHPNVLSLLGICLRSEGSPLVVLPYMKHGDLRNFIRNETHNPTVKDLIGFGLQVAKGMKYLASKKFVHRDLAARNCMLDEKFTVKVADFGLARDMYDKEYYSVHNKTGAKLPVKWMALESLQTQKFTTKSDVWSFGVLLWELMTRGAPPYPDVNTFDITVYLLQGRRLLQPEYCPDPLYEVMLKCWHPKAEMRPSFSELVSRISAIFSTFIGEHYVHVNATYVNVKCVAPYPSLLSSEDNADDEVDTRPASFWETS
Excerpt: (§1) A flow cytometer (Beckman, model Cytoflex) was used to detect the interaction between anti-human EGFR/c-MET bispecific antibodies and their conjugates and human gastric cancer cells MKN45 (Nanjing Cobioer Biosciences) and human gastric cancer cells overexpressing human EGFR MKN45-EGFR (Kelun-Biotech), human lung squamous cell carcinoma EBC-1 (Nanjing Cobioer Biosciences), human lung squamous cell carcinoma EBC-1-EGFR overexpressing human EGFR (Kelun-Biotech), human non-small cell lung cancer cell HCC827 (ATCC™), and human epidermal squamous cell carcinoma cell A431 (Nanjing Cobioer Biosciences). The protocol was as follows.
(§2) The adherent cells were digested with Trypsin-EDTA solution (0.25%) (Shanghai BasalMedia) and the cell density adjusted to 4.0×10⁶ per mL. The cells were washed twice with 1% BSA and resuspended in 1% BSA solution. Then 50 μL cell suspension was added to each well of a 96-well plate (the number of cells was 2×10⁵ per well). The antibody and its conjugate were diluted with 1% BSA (final concentration 10 µg/mL, 3-fold gradient dilution, a total of 11 concentration points). Then 50 μL of the diluted antibody and ADC were added to the wells of the 96-well plate and the plate was incubated at 4° C. for 60 minutes. The wells of the 96-well plate were then washed twice with 1% BSA, 50 μL of diluted secondary antibody was added to each well, and the 96-well plate was incubated at 4° C. for 30 minutes. Then the cells were washed twice with 1% BSA, and the cells were resuspended in 200 μL of 1% BSA and subjected to flow cytometry detection.

| Binder | EC50 [nM] |
| --- | --- |
| B1 | 1.51 |
| B2 | 1.29 |
| B3 | 1.47 |
| B4 | 1.46 |

target: T1, human c-MET; experiment: cell-based or functional assay

| Binder | IC50, in vitro cell killing (CCK8) on EBC-1 cells [nM] | IC50, in vitro cell killing (CCK8) on MKN45 cells [nM] |
| --- | --- | --- |
| B5 | 2.95 | 1.17 |
| B2 | 1.03 | 0.3 |
| B3 | 0.48 | – |
| B6 | 0.42 | 0.4 |

target: T1, human c-MET; experiment: flow cytometry on MKN45 cells (highly express c-MET)
Excerpt: as §1, §2

| Binder | EC50 [nM] |
| --- | --- |
| B1 | 1.1 |
| B7 | 1.16 |
